# Target: T1, streptavidin (UniProt P22629 37-163, limits assumed)
# T1 construct: Used at a 2-fold molar excess over the fusion protein
# Test: HPLC after mixing the purified fusion protein with a 2-fold molar excess of streptavidin
# Method: Each of the DNA sequences encoding the affinity peptides was added individually to the 5′ terminus of a His(10)-tagged phi29 DNA polymerase gene such that the polypeptide expressed from each construct was a fusion protein consisting of: N-terminus-biotinylation peptide-His(10)-phi29 pol-C-terminus. Each gene was expressed in E. coli cells co-expressing biotin ligase in culture medium containing biotin. These conditions are known to effect the in-vivo biotinylation of biotinylation peptides. Proteins were purified using Ni-NTA columns and then mixed with a 2-fold molar excess of streptavidin under conditions known to effect binding of streptavidin to biotinylated fusion proteins.
# The degree of biotinylation of each protein was assessed by HPLC. […] None of the biotinylation peptides affected the polymerase activity when tested in a branching fraction assay performed, for example, as described in U.S. patent application No. 2010/0112645.
# T1 sequence (P22629 37-163 limits assumed): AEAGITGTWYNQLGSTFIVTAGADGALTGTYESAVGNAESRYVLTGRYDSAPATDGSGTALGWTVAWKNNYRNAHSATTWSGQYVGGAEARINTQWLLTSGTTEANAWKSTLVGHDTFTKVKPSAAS
row,Binder,percent bound to streptavidin [%]
1,"SEQ ID NO 11 (other, phi29, biotin on the lysine of the biotinylation peptide (in-vivo biotinylation by biotin ligase), N-terminus-biotinylation peptide-His(10)-phi29 pol-C-terminus; expressed in E. coli co-expressing biotin ligase, Ni-NTA purified) LNDIFNAQKIEWHHHHHHHHHHHMKHMPRKMYSCDFETTTKVEDCRVWAYGYMNIEDHSEYKIGNSLDEFMAWVLKVQADLYFHNLKFDGAFIINWLERNGFKWSADGLPNTYNTIISRMGQWYMIDICLGYKGKRKIHTVIYDSLKKLPFPVKKIAKDFKLTVLKGDIDYHKERPVGYKITPEEYAYIKNDIQIIAEALLIQFKQGLDRMTAGSDSLKGFKDIITTKKFKKVFPTLSLGLDKEVRYAYRGGFTWLNDRFKEKEIGEGMVFDVNSLYPAQMYSRLLPYGEPIVFEGKYVWDEDYPLHIQHIRCEFELKEGYIPTIQIKRSRFYKGNEYLKSSGGEIADLWLSNVDLELMKEHYDLYNVEYISGLKFKATTGLFKDFIDKWTYIKTTSEGAIKQLAKLMLNSLYGKFASNPDVTGKVPYLKENGALGFRLGEEETKDPVYTPMGVFITAWARYTTITAAQACYDRIIYCDTDSIHLTGTEIPDVIKDIVDPKKLGYWAHESTFKRAKYLRQKTYIQDIYMKEVDGKLVEGSPDDYTDIKFSVKCAGMTDKIKKEVTFENFKVGFSRKMKPKPVQVPGGVVLVDDTFTIK",~100
2,"SEQ ID NO 5 (other, phi29, biotin on the lysine of the biotinylation peptide (in-vivo biotinylation by biotin ligase), N-terminus-biotinylation peptide-His(10)-phi29 pol-C-terminus; expressed in E. coli co-expressing biotin ligase, Ni-NTA purified) INDIFEAQKIEWHHHHHHHHHHHMKHMPRKMYSCDFETTTKVEDCRVWAYGYMNIEDHSEYKIGNSLDEFMAWVLKVQADLYFHNLKFDGAFIINWLERNGFKWSADGLPNTYNTIISRMGQWYMIDICLGYKGKRKIHTVIYDSLKKLPFPVKKIAKDFKLTVLKGDIDYHKERPVGYKITPEEYAYIKNDIQIIAEALLIQFKQGLDRMTAGSDSLKGFKDIITTKKFKKVFPTLSLGLDKEVRYAYRGGFTWLNDRFKEKEIGEGMVFDVNSLYPAQMYSRLLPYGEPIVFEGKYVWDEDYPLHIQHIRCEFELKEGYIPTIQIKRSRFYKGNEYLKSSGGEIADLWLSNVDLELMKEHYDLYNVEYISGLKFKATTGLFKDFIDKWTYIKTTSEGAIKQLAKLMLNSLYGKFASNPDVTGKVPYLKENGALGFRLGEEETKDPVYTPMGVFITAWARYTTITAAQACYDRIIYCDTDSIHLTGTEIPDVIKDIVDPKKLGYWAHESTFKRAKYLRQKTYIQDIYMKEVDGKLVEGSPDDYTDIKFSVKCAGMTDKIKKEVTFENFKVGFSRKMKPKPVQVPGGVVLVDDTFTIK",~100
3,"SEQ ID NO 7 (other, phi29, biotin on the lysine of the biotinylation peptide (in-vivo biotinylation by biotin ligase), N-terminus-biotinylation peptide-His(10)-phi29 pol-C-terminus; expressed in E. coli co-expressing biotin ligase, Ni-NTA purified) LNDLFEAQKIEWHHHHHHHHHHHMKHMPRKMYSCDFETTTKVEDCRVWAYGYMNIEDHSEYKIGNSLDEFMAWVLKVQADLYFHNLKFDGAFIINWLERNGFKWSADGLPNTYNTIISRMGQWYMIDICLGYKGKRKIHTVIYDSLKKLPFPVKKIAKDFKLTVLKGDIDYHKERPVGYKITPEEYAYIKNDIQIIAEALLIQFKQGLDRMTAGSDSLKGFKDIITTKKFKKVFPTLSLGLDKEVRYAYRGGFTWLNDRFKEKEIGEGMVFDVNSLYPAQMYSRLLPYGEPIVFEGKYVWDEDYPLHIQHIRCEFELKEGYIPTIQIKRSRFYKGNEYLKSSGGEIADLWLSNVDLELMKEHYDLYNVEYISGLKFKATTGLFKDFIDKWTYIKTTSEGAIKQLAKLMLNSLYGKFASNPDVTGKVPYLKENGALGFRLGEEETKDPVYTPMGVFITAWARYTTITAAQACYDRIIYCDTDSIHLTGTEIPDVIKDIVDPKKLGYWAHESTFKRAKYLRQKTYIQDIYMKEVDGKLVEGSPDDYTDIKFSVKCAGMTDKIKKEVTFENFKVGFSRKMKPKPVQVPGGVVLVDDTFTIK",~100
4,"SEQ ID NO 12 (other, phi29, biotin on the lysine of the biotinylation peptide (in-vivo biotinylation by biotin ligase), N-terminus-biotinylation peptide-His(10)-phi29 pol-C-terminus; expressed in E. coli co-expressing biotin ligase, Ni-NTA purified) LNDIFSAQKIEWHHHHHHHHHHHMKHMPRKMYSCDFETTTKVEDCRVWAYGYMNIEDHSEYKIGNSLDEFMAWVLKVQADLYFHNLKFDGAFIINWLERNGFKWSADGLPNTYNTIISRMGQWYMIDICLGYKGKRKIHTVIYDSLKKLPFPVKKIAKDFKLTVLKGDIDYHKERPVGYKITPEEYAYIKNDIQIIAEALLIQFKQGLDRMTAGSDSLKGFKDIITTKKFKKVFPTLSLGLDKEVRYAYRGGFTWLNDRFKEKEIGEGMVFDVNSLYPAQMYSRLLPYGEPIVFEGKYVWDEDYPLHIQHIRCEFELKEGYIPTIQIKRSRFYKGNEYLKSSGGEIADLWLSNVDLELMKEHYDLYNVEYISGLKFKATTGLFKDFIDKWTYIKTTSEGAIKQLAKLMLNSLYGKFASNPDVTGKVPYLKENGALGFRLGEEETKDPVYTPMGVFITAWARYTTITAAQACYDRIIYCDTDSIHLTGTEIPDVIKDIVDPKKLGYWAHESTFKRAKYLRQKTYIQDIYMKEVDGKLVEGSPDDYTDIKFSVKCAGMTDKIKKEVTFENFKVGFSRKMKPKPVQVPGGVVLVDDTFTIK",~100
5,"SEQ ID NO 10 (other, phi29, biotin on the lysine of the biotinylation peptide (in-vivo biotinylation by biotin ligase), N-terminus-biotinylation peptide-His(10)-phi29 pol-C-terminus; expressed in E. coli co-expressing biotin ligase, Ni-NTA purified) LNDIFHAQKIEWHHHHHHHHHHHMKHMPRKMYSCDFETTTKVEDCRVWAYGYMNIEDHSEYKIGNSLDEFMAWVLKVQADLYFHNLKFDGAFIINWLERNGFKWSADGLPNTYNTIISRMGQWYMIDICLGYKGKRKIHTVIYDSLKKLPFPVKKIAKDFKLTVLKGDIDYHKERPVGYKITPEEYAYIKNDIQIIAEALLIQFKQGLDRMTAGSDSLKGFKDIITTKKFKKVFPTLSLGLDKEVRYAYRGGFTWLNDRFKEKEIGEGMVFDVNSLYPAQMYSRLLPYGEPIVFEGKYVWDEDYPLHIQHIRCEFELKEGYIPTIQIKRSRFYKGNEYLKSSGGEIADLWLSNVDLELMKEHYDLYNVEYISGLKFKATTGLFKDFIDKWTYIKTTSEGAIKQLAKLMLNSLYGKFASNPDVTGKVPYLKENGALGFRLGEEETKDPVYTPMGVFITAWARYTTITAAQACYDRIIYCDTDSIHLTGTEIPDVIKDIVDPKKLGYWAHESTFKRAKYLRQKTYIQDIYMKEVDGKLVEGSPDDYTDIKFSVKCAGMTDKIKKEVTFENFKVGFSRKMKPKPVQVPGGVVLVDDTFTIK",~100
6,"SEQ ID NO 4 (other, phi29, biotin on the lysine of the biotinylation peptide (in-vivo biotinylation by biotin ligase), N-terminus-biotinylation peptide-His(10)-phi29 pol-C-terminus; expressed in E. coli co-expressing biotin ligase, Ni-NTA purified) INDLFSAQKIEWHHHHHHHHHHHMKHMPRKMYSCDFETTTKVEDCRVWAYGYMNIEDHSEYKIGNSLDEFMAWVLKVQADLYFHNLKFDGAFIINWLERNGFKWSADGLPNTYNTIISRMGQWYMIDICLGYKGKRKIHTVIYDSLKKLPFPVKKIAKDFKLTVLKGDIDYHKERPVGYKITPEEYAYIKNDIQIIAEALLIQFKQGLDRMTAGSDSLKGFKDIITTKKFKKVFPTLSLGLDKEVRYAYRGGFTWLNDRFKEKEIGEGMVFDVNSLYPAQMYSRLLPYGEPIVFEGKYVWDEDYPLHIQHIRCEFELKEGYIPTIQIKRSRFYKGNEYLKSSGGEIADLWLSNVDLELMKEHYDLYNVEYISGLKFKATTGLFKDFIDKWTYIKTTSEGAIKQLAKLMLNSLYGKFASNPDVTGKVPYLKENGALGFRLGEEETKDPVYTPMGVFITAWARYTTITAAQACYDRIIYCDTDSIHLTGTEIPDVIKDIVDPKKLGYWAHESTFKRAKYLRQKTYIQDIYMKEVDGKLVEGSPDDYTDIKFSVKCAGMTDKIKKEVTFENFKVGFSRKMKPKPVQVPGGVVLVDDTFTIK",~100
7,"SEQ ID NO 3 (other, phi29, biotin on the lysine of the biotinylation peptide (in-vivo biotinylation by biotin ligase), N-terminus-biotinylation peptide-His(10)-phi29 pol-C-terminus; expressed in E. coli co-expressing biotin ligase, Ni-NTA purified) LNDFFNAQKIEWHHHHHHHHHHHMKHMPRKMYSCDFETTTKVEDCRVWAYGYMNIEDHSEYKIGNSLDEFMAWVLKVQADLYFHNLKFDGAFIINWLERNGFKWSADGLPNTYNTIISRMGQWYMIDICLGYKGKRKIHTVIYDSLKKLPFPVKKIAKDFKLTVLKGDIDYHKERPVGYKITPEEYAYIKNDIQIIAEALLIQFKQGLDRMTAGSDSLKGFKDIITTKKFKKVFPTLSLGLDKEVRYAYRGGFTWLNDRFKEKEIGEGMVFDVNSLYPAQMYSRLLPYGEPIVFEGKYVWDEDYPLHIQHIRCEFELKEGYIPTIQIKRSRFYKGNEYLKSSGGEIADLWLSNVDLELMKEHYDLYNVEYISGLKFKATTGLFKDFIDKWTYIKTTSEGAIKQLAKLMLNSLYGKFASNPDVTGKVPYLKENGALGFRLGEEETKDPVYTPMGVFITAWARYTTITAAQACYDRIIYCDTDSIHLTGTEIPDVIKDIVDPKKLGYWAHESTFKRAKYLRQKTYIQDIYMKEVDGKLVEGSPDDYTDIKFSVKCAGMTDKIKKEVTFENFKVGFSRKMKPKPVQVPGGVVLVDDTFTIK",~100
8,"SEQ ID NO 6 (other, phi29, biotin on the lysine of the biotinylation peptide (in-vivo biotinylation by biotin ligase), N-terminus-biotinylation peptide-His(10)-phi29 pol-C-terminus; expressed in E. coli co-expressing biotin ligase, Ni-NTA purified) LNLIFEAQKIEWHHHHHHHHHHHMKHMPRKMYSCDFETTTKVEDCRVWAYGYMNIEDHSEYKIGNSLDEFMAWVLKVQADLYFHNLKFDGAFIINWLERNGFKWSADGLPNTYNTIISRMGQWYMIDICLGYKGKRKIHTVIYDSLKKLPFPVKKIAKDFKLTVLKGDIDYHKERPVGYKITPEEYAYIKNDIQIIAEALLIQFKQGLDRMTAGSDSLKGFKDIITTKKFKKVFPTLSLGLDKEVRYAYRGGFTWLNDRFKEKEIGEGMVFDVNSLYPAQMYSRLLPYGEPIVFEGKYVWDEDYPLHIQHIRCEFELKEGYIPTIQIKRSRFYKGNEYLKSSGGEIADLWLSNVDLELMKEHYDLYNVEYISGLKFKATTGLFKDFIDKWTYIKTTSEGAIKQLAKLMLNSLYGKFASNPDVTGKVPYLKENGALGFRLGEEETKDPVYTPMGVFITAWARYTTITAAQACYDRIIYCDTDSIHLTGTEIPDVIKDIVDPKKLGYWAHESTFKRAKYLRQKTYIQDIYMKEVDGKLVEGSPDDYTDIKFSVKCAGMTDKIKKEVTFENFKVGFSRKMKPKPVQVPGGVVLVDDTFTIK",~100
9,"SEQ ID NO 8 (other, phi29, biotin on the lysine of the biotinylation peptide (in-vivo biotinylation by biotin ligase), N-terminus-biotinylation peptide-His(10)-phi29 pol-C-terminus; expressed in E. coli co-expressing biotin ligase, Ni-NTA purified) LNDFFEAQKIEWHHHHHHHHHHHMKHMPRKMYSCDFETTTKVEDCRVWAYGYMNIEDHSEYKIGNSLDEFMAWVLKVQADLYFHNLKFDGAFIINWLERNGFKWSADGLPNTYNTIISRMGQWYMIDICLGYKGKRKIHTVIYDSLKKLPFPVKKIAKDFKLTVLKGDIDYHKERPVGYKITPEEYAYIKNDIQIIAEALLIQFKQGLDRMTAGSDSLKGFKDIITTKKFKKVFPTLSLGLDKEVRYAYRGGFTWLNDRFKEKEIGEGMVFDVNSLYPAQMYSRLLPYGEPIVFEGKYVWDEDYPLHIQHIRCEFELKEGYIPTIQIKRSRFYKGNEYLKSSGGEIADLWLSNVDLELMKEHYDLYNVEYISGLKFKATTGLFKDFIDKWTYIKTTSEGAIKQLAKLMLNSLYGKFASNPDVTGKVPYLKENGALGFRLGEEETKDPVYTPMGVFITAWARYTTITAAQACYDRIIYCDTDSIHLTGTEIPDVIKDIVDPKKLGYWAHESTFKRAKYLRQKTYIQDIYMKEVDGKLVEGSPDDYTDIKFSVKCAGMTDKIKKEVTFENFKVGFSRKMKPKPVQVPGGVVLVDDTFTIK",~100

# Reference: patent US20110306096A1 (PACIFIC BIOSCIENCES OF CALIFORNIA, published 2011)
